Measurements reported in patent US20030220239A1 (published 2003).

How the values were obtained:
[1] = target: HLA-A2.1 (HLA-A*0201) on T2 cells (human); test: T2 cell HLA-A*0201 stabilisation, flow cytometry
[2] = target: HLA-A2.1 (HLA-A*0201) on T2 cells (human); test: T2 cell HLA-A2 stabilisation, flow cytometry
[3] = target: HLA-A2.1 (HLA-A*0201) on T2 cells (human); test: T2 cell HLA-A2.1 stabilisation, flow cytometry
Experimental: Peptide was mixed with the cells by repipeting before distributing to the plate (alternatively peptide can be added to individual wells), and the plate was rocked gently for 2 minutes. Incubation was in a 5% CO₂ incubator at 37° C. The next day the unbound peptide was removed by washing twice with serum free RPMI medium and a saturating amount of anti-class I HLA monoclonal antibody, fluorescein isothiocyanate (FITC)-conjugated anti-HLA A2, A28 (One Lambda, Canoga Park, Calif.) was added. After incubation for 30 minutes at 4° C., cells were washed 3 times with PBS supplemented with 0.5% BSA, 0.05% (w/v) sodium azide, pH 7.4-7.6 (staining buffer). (Alternatively W6/32 (Sigma) can be used as the anti-class I HLA monoclonal antibody the cells washed with staining buffer and then incubated with fluorescein isothiocyanate (FITC)-conjugated goat F(ab′) antimouse-IgG (Sigma) for 30 min at 4° C. and washed 3 times as before.) The cells were resuspended in 0.5 ml staining buffer. […] If flow cytometry is not to be performed immediately the cells can be fixed by adding a quarter volume of 2% paraformaldehyde and storing in the dark at 4° C.

binding result [2]	Binder	further results
–	MMNDQLMFL [PSMA663-671 (SEQ ID NO. 66)]	binding result [1]: binds
binds	LPWHRLFLL (also called Tyr 208-216) [tyrosinase208-216, LPWHRLFLL]	–
binds	FLPWHRLFL (also called Tyr 207-215) [tyrosinase207-215, FLPWHRLFL]	–
–	KASEKIFYV [SSX-2 41-49, KASEKIFYV]	binding result [3]: binds
